Experimental data as given in patent publication US20070016969A1.

Biological target: Bovine thrombin (Sigma) (bovine) (UniProt P00735)
Test: cell-based or functional assay

hirudin encoded by the full-length DNA fragment Hi (SEQ ID NO: 17), expressed from pE-αLA-Hi in NMuMG mammary gland cells (from UniProt P01050 1-65)
amount of culture medium at which there is no coagulation (plasma coagulation, A405): 10 µL | amount of culture medium needed for the anti-coagulation reaction at the A405 reading of 0.05: 0.95 µL | amount of homogeneous extract of mammary gland cells at which there is no coagulation (plasma coagulation, A405): 0.25 mg | amount of homogeneous extract of mammary gland cells needed for the anti-coagulation reaction at the A405 reading of 0.05: 0.056 mg

commercially available nature hirudin (Sigma) (from UniProt P01050 1-65)
amount at which there is almost no coagulation (plasma coagulation, A405): 0.16 pmol | amount needed for the anti-coagulation reaction at the A405 reading of 0.05: 0.52 pmol
